Results reported in US20110300156A1 (Genmab, published 2011).

Key:
[1] = biological target: T1, human tissue factor (TF), membrane-bound on cells (human, UniProt P13726 33-295); experiment: FACS, A431 cells
T1 construct: whole, on cells; also called cellular TF
Protocol: (§1) Cells were resuspended in PBS (2×10⁶ cells/ml), put in 96-well V-bottom plates (50 μl/well). 50 μl of serially diluted HuMab in FACS buffer (PBS supplemented with 0.1% BSA and 0.02% Na-azide) was added to the cells and incubated for 30 minutes on ice. After washing three times with FACS buffer, 50 μl of phycoerythrin (PE)-conjugated goat anti-human IgGFc (Jackson ImmunoResearch), diluted 1:100 in FACS buffer, was added. After 30 minutes on ice (in the dark), cells were washed three times, and specific binding of the HuMabs was detected by flow cytometry on a FACSCalibur (BD Biosciences). HuMab-KLH was used as a negative control. Mouse anti-TF followed by PE-conjugated anti-mouse IgGFc was used as positive control. Binding curves were analyzed using non-linear regression (sigmoidal dose-response with variable slope) using GraphPad Prism V4.03 software (GraphPad Software, San Diego, Calif., USA).

[2] = biological target: T1, human tissue factor (TF), …; experiment: FACS, Bx-PC3 cells
Protocol: as §1

[3] = biological target: T1, human tissue factor (TF), …; experiment: FACS, MDA-MB-231 cells
Protocol: as §1

[4] = biological target: T1, human tissue factor (TF), …; experiment: cell-based or functional assay
[5] = biological target: T1, human tissue factor (TF), …; experiment: cell-based or functional assay; remark: listed apart in the source
TF (Innovin) [6] = biological target: T2, TF (Innovin) (UniProt P13726 33-295, limits assumed); experiment: cell-based or functional assay
[7] = biological target: T1, human tissue factor (TF), …; experiment: cell-based or functional assay; remark: listed apart in the source
[8] = biological target: T1, human tissue factor (TF), …; experiment: FACS, A431 cells, 30 µg/mL
Protocol: as §1

[9] = biological target: T1, human tissue factor (TF), …; experiment: FACS, Bx-PC3 cells, 30 µg/mL
Protocol: as §1

[10] = biological target: T1, human tissue factor (TF), …; experiment: FACS, MDA-MB-231 cells, 30 µg/mL
Protocol: as §1

[11] = biological target: T3, TFECDHis (extracellular domain of tissue factor, amino acid 1-251, with C-terminal His tag) (human, UniProt P13726 33-251); experiment: ELISA, coated TFECDHis, mean of 3
T3 construct: range 1-251; The stated range 1-251 starts at residue 1 of NP-001984; also called extracellular domain of TF
Protocol: The specificity of the obtained anti-TF HuMabs was evaluated by ELISA. ELISA plates (Microlon; Greiner Bio-One) were coated overnight at +4° C. with 0.5 μg/mL of TFECDHis in PBS, pH 7.4. Coated ELISA plates were emptied and blocked for one hour at room temperature with 2% (v/v) chicken serum (Gibco, Paisley, Scotland) in PBS and washed with PBS containing 0.05% Tween 20 (PBST). Subsequently, HuMabs, serially diluted in PBSTC (PBS supplemented with 2% (v/v) chicken serum and 0.05% (v/v) Tween-20), were incubated for 1 hr at RT under shaking conditions (300 rpm). Bound HuMabs were detected using HRP-conjugated goat-anti-human IgG antibodies (Jackson ImmunoResearch) diluted 1:5,000 in PBSTC, which were incubated for 1 hr at RT under shaking conditions (300 rpm). […] HuMab-KLH (a human monoclonal antibody against KLH (keyhole limpet haemocyanin)), was used as a negative control. Mouse anti-human TF (ERL) was used as positive control (HRP labeled anti-mouse IgG as conjugate). Binding curves were analyzed using non-linear regression (sigmoidal dose-response with variable slope) using GraphPad Prism V4.03 software.

[12] = biological target: T1, human tissue factor (TF), …; experiment: FACS, TF transfected CHO cells (S1015-TF)
Protocol: as §1

[13] = biological target: T1, human tissue factor (TF), …; experiment: FACS, TF transfected CHO cells (S1015-TF), 7.5 µg/mL
Protocol: as §1

[14] = biological target: T4, murine tissue factor (TF) on transfected HEK293F cells (murine, UniProt P20352 29-294); experiment: FACS on transfected HEK293F cells, 30 µg/mL antibody [panel L]
T4 construct: whole, on cells; also called murine TF; TFmm
T4 sequence (looked up): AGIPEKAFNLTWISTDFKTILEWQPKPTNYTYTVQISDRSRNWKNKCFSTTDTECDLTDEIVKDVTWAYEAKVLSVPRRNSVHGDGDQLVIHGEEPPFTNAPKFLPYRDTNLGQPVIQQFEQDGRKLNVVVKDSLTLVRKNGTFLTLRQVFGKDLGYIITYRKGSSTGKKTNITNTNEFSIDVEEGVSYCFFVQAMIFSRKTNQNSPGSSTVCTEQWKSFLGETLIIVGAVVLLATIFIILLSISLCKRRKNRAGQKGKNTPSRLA

[15] = biological target: T3, TFECDHis (extracellular domain of …); experiment: competition ELISA, inhibition of FVIIa (100 nM) binding to coated TFECDHis
Protocol: ELISA plates were coated overnight with TFECDHis (0.5 μg/mL, 100 μL per well). Plates were emptied, blocked with PBS containing 2% (v/v) chicken serum (1 hour, RT), and emptied again. […] Plates were washed and incubated with swine-anti-rabbit IgG-HRP antibody (1:2,500; DAKO). After washing, the immune complexes were visualized using ABTS as a substrate.

[16] = biological target: T4, murine tissue factor (TF) on …; experiment: FACS on transfected HEK293F cells, 30 µg/mL antibody [panel O]
TF (Innovin) [17] = biological target: T2, TF (Innovin); experiment: cell-based or functional assay; remark: listed apart in the source
[18] = biological target: T4, murine tissue factor (TF) on …; experiment: FACS on transfected HEK293F cells, 30 µg/mL antibody [panel K]
[19] = biological target: T1, human tissue factor (TF), …; experiment: FACS on MDA-MB-231 cells (~900.000 TF molecules/cell) [panel MDA-MB-231 cells]
Protocol: as §1
(§2) Binding of anti-TF HuMabs to membrane-bound TF on cell lines expressing different levels of TF was determined by FACS analysis, essentially as described supra. Mouse anti-TF antibody followed by PE-conjugated anti-mouse IgGFc was used as a positive control. Fluorescence was measured on a FACSCantoII. Binding curves were analyzed essentially as described supra, using GraphPad Prism 5 software. The amount of TF molecules on cell lines was determined by Qifi kit (Dako, Glostrup, Denmark), according to the manufacturer's instructions.

[20] = biological target: T3, TFECDHis (extracellular domain of …); experiment: SPR avidity format: TFECDHis immobilized, bivalent HuMab as analyte (printed as avidity nM)
Protocol: Antibody binding to TF was analyzed by surface plasmon resonance in a BIAcore 3000 (GE Healthcare). TFECDHis was used for the analysis. HuMab antibodies (500 resonance units) were immobilized on the CM-5 sensor chip according to the procedure recommended by the manufacturer. Briefly, after surface activation by EDC and NHS HuMab antibody was injected over the activated CM-5 surface in 10 mM sodium-acetate, pH ranging from 4.0 to 5.5 at 5 μl/min. followed by 1 M Ethanolamine for deactivation. Concentration series of TFECDHis in HBS-EP buffer were injected over the immobilized antibodies at a flow rate of 30 μl/min for 180 sec. Regeneration of the HuMab surface was performed by injection of 10 mM Glycine-HCl pH 2.0 or 10 mM sodium acetate pH 3.0. Kinetic analysis was performed using double reference subtraction and model 1:1 (langmuir) binding analysis.
TF (TFECDHis) binding to TF-specific HuMabs was determined essentially as described above, with TFECDHis being immobilized on the CM-5 sensor chip (300 resonance units), and concentration series of Humab antibodies used for kinetic analysis. Kinetic analysis was performed using double reference subtraction and model 1:1 (langmuir) binding analysis.

[21] = biological target: T1, human tissue factor (TF), …; experiment: FACS on AsPC-1 cells (~175.000 TF molecules/cell) [panel AsPC-1 cells]
Protocol: as §1, §2

[22] = biological target: T4, murine tissue factor (TF) on …; experiment: FACS on transfected HEK293F cells, 30 µg/mL antibody [panel N]

B1: anti-TF HuMab 101 (antibody, V domains shown)
VH: EVQLLESGGGLVQPGGSLRLSCAASGFTFSNYAMSWVRQAPAKGLDWVSGISGSGVTTYYADSVKGRFTISRDNSKDTLYLQMNSLRAEDTAVYFCAKTPWGYYFDYWGQGILVAVSS
VL: DIQMTQSPSSLSASVGDRVTITCRASQGISSWLAWYQQKPEKAPKSLIYAASSLQSGVPSRFSGSGSGTDFTLTISSLQPEDFATYYCQQYNSYPLYTFGQGTKLEIK
notes: Human monoclonal antibody from HuMab mice
B1 was tested, and the EC50 [1] was 3.16 nM, the EC50 [2] was 2.25 nM and the EC50 [3] was 0.85 nM. For the same binder, the “% max inhibition of FVIIa induced ERK phosphorylation (A431)” value (“% max inhibition … (A431)” below) [4] was 57%, the “IC50, inhibition of FVIIa induced ERK phosphorylation (A431)” value (shortened to “IC50, inhibition … (A431)”) [4] was 1.05 nM and the “IC50, inhibition of FVIIa induced IL-8 release (MDA-MB-231)” value (“IC50, inhibition … (MDA-MB-231)” for short) [5] was 22.7 nM. For the same binder, the “max inhibition of FVIIa induced IL-8 release (MDA-MB-231)” value (“max inhibition … (MDA-MB-231)” below) [5] was 74.9%, the “IC50, inhibition of blood coagulation (TF induced clotting time)” value (TF (Innovin) [6]) was 0.7 nM and the “EC50 of ADCC, A431 cells” value [7] was 0.01 nM. For the same binder, the “EC50 of ADCC, Bx-PC3 cells” value [7] was 0.09 nM, the “EC50 of ADCC, MDA-MB-231 cells” value [7] was 0.1 nM and the “Max MFI” value [8] was 2930. For the same binder, the “Max MFI” value [9] was 1220, the “Max MFI” value [10] was 2070 and the EC50 [11] was 0.28 nM. For the same binder, the EC50 [12] was 1.77 nM, the “Max MFI” value [13] was 5860 and the binding result [14] was “no binding (tested: 30 µg/mL)”.

B2: anti-TF HuMab 114 (antibody, V domains shown)
VH: QVQLVESGGGVVQPGRSLRLSCVASGFTVSNDGMHWVRQAPGKGLEWVALIWYDGVNKNYADSVKGRFTISRDKSKNTLYLQMNSLRAEDTAVYYCARRPGTFYGLDVWGQGTTVTVSS
VL: not shown
notes: as for B1
B2 was tested, and the max inhibition [15] was 90% and the binding result [16] was “no binding (tested: 30 µg/mL)”.

B3: anti-TF HuMab 098 (antibody, V domains shown)
VH: QVQLVQSGAEVRKPGSSVKVSCKASGGSFNNYPIFWVRQAPGQGFEWMGRIIPILGITAYAQKFQGRVTITADKSTSTAYMELNSLRSEDTAVYYCAGGDDLDAFDIWGQGTMVSVSS
VL: DIQMTQSPSSLSASVGDRVTITCRASQGISSWLAWYQQKPEKAPKSLIYAASSLQSGVPSRFSGSGSGTDFTLTISSLQPEDFATYYCQQYNSYPYTFGQGTKLEIK
notes: Human monoclonal antibody from HuMab mice; also called HuMab-TF-098; HuMab-TF-98
With B3 the EC50 [1] was 1.4 nM, the EC50 [2] was 1.38 nM and the EC50 [3] was 0.99 nM. The “% max inhibition … (A431)” value [4] was 64%, the “IC50, inhibition … (A431)” value [4] was 1.89 nM and the “IC50, inhibition … (MDA-MB-231)” value [5] was 9.3 nM. The “max inhibition … (MDA-MB-231)” value [5] was 59%, the “% max inhibition of FXa generation” value (TF (Innovin) [17]) was 14% and the “IC50, inhibition of FXa generation” value (TF (Innovin) [17]) was 0.43 nM. For the same binder, the “EC50 of ADCC, A431 cells” value [7] was 0.07 nM, the “EC50 of ADCC, Bx-PC3 cells” value [7] was 0.02 nM and the “EC50 of ADCC, MDA-MB-231 cells” value [7] was 0.15 nM. For the same binder, the “Max MFI” value [8] was 2760, the “Max MFI” value [9] was 1150 and the “Max MFI” value [10] was 1960. For the same binder, the EC50 [12] was 0.96 nM, the “Max MFI” value [13] was 5230 and the IC50 [15] was 0.8 nM. The max inhibition [15] was 85%, the binding result [18] was “no binding (tested: 30 µg/mL)” and the “EC50 (read off the curve)” value [19] was roughly 0.05 µg/mL. It also gave a Kd [20] of 4.85 nM.

B4: anti-TF HuMab 111 (antibody, V domains shown)
VH: QVQLVESGGGVVQPGRSLRLSCAGSGFTFNRYAMYWVRQAPGKGLDWVAVISNDGINKYYADSVKGRFTISRDNSKNTLYLQMNSLRAEDTAVYYCARDHTMVRGAFDYWGQGTLVTVSS
VL: EIVLTQSPATLSLSPGERATLSCRASQSVSSYLAWYQQKPGQAPRLLIYDASNRATGIPARFSGSGSGTDFTLTISSLEPEDFAVYYCQQRSNWPLTFGGGTKVEIK
notes: as for B1
With B4 the EC50 [1] was 2.88 nM, the EC50 [2] was 1.83 nM and the EC50 [3] was 1.03 nM. The “% max inhibition … (A431)” value [4] was 52%, the “IC50, inhibition … (A431)” value [4] was greater than 66.6 nM and the “IC50, inhibition … (MDA-MB-231)” value [5] was greater than 200 nM. For the same binder, the “max inhibition … (MDA-MB-231)” value [5] was 40.1%, the “% max inhibition of FXa generation” value (TF (Innovin) [17]) was 7% and the “IC50, inhibition of FXa generation” value (TF (Innovin) [17]) was 0.07 nM. For the same binder, the “EC50 of ADCC, A431 cells” value [7] was 1.56 nM, the “EC50 of ADCC, MDA-MB-231 cells” value [7] was 0.84 nM and the “Max MFI” value [8] was 3040. The “Max MFI” value [9] was 1130, the “Max MFI” value [10] was 1770 and the EC50 [12] was 0.55 nM. For the same binder, the “Max MFI” value [13] was 5350, the max inhibition [15] was 79% and the “EC50 (read off the curve)” value [21] was roughly 0.1 µg/mL. The binding result [22] was “no binding (tested: 30 µg/mL)”, the “EC50 (read off the curve)” value [19] was roughly 0.06 µg/mL and the Kd [20] was 0.11 nM.
